Among the data in PMC11693862 (Acta Biochimica et Biophysica Sinica, 2024) are stoichiometry N values, retold here.

The term stoichiometry N denotes the number of molecules, sites or subunits per partner or assembly.

Holding throughout (test): crystal structure
Experiment [1] addresses SARS-CoV-2 M pro Y54C (SARS-CoV-2).
In experiment [2] the target is SARS-CoV-2 M pro G15S (SARS-CoV-2).
Experiment [3] addresses SARS-CoV-2 M pro S46F (SARS-CoV-2).
Experiment [4] deals with SARS-CoV-2 M pro K90R (SARS-CoV-2).
For experiment [5], the target named is SARS-CoV-2 M pro M49I (SARS-CoV-2).
In experiment [6] the target is SARS-CoV-2 M pro V186F (SARS-CoV-2).
In experiment [7] the target is SARS-CoV-2 M pro P132H (SARS-CoV-2).

Take SARS-CoV-2 M pro Y54C (enzyme): in experiment [1], the stoichiometry N amounted to 2.

In experiment [2], SARS-CoV-2 M pro G15S (enzyme) displayed a stoichiometry N of 2.

With SARS-CoV-2 M pro S46F (enzyme), the stoichiometry N in experiment [3] worked out at 2.

On to SARS-CoV-2 M pro K90R (enzyme), for which the stoichiometry N in experiment [4] amounted to 2.

Substance SARS-CoV-2 M pro M49I (enzyme) yielded a stoichiometry N in experiment [5] of 2.

In experiment [6], SARS-CoV-2 M pro V186F (enzyme) showed a stoichiometry N of 2.

SARS-CoV-2 M pro P132H (enzyme) showed a stoichiometry N in experiment [7] of 2.
